Laboratory results from the supplement of paper PMC7125110.
± gives the standard error. Variants at the floor of the assay were thinned out.

B1: glmS ribozyme (parent)
chain: AUAAAAGCGCCAGAACUACAGAAAUGUAGUUGACGAGGAGGAGGUUUAUCGAAUUUUCGGCGGAUGCCUCCAAA

Columns and labels:
Details in all cases: with glucosamine-6-phosphate
glucosamine-6-phosphate [1] = variants of: B1; assay: self-cleavage kobs at 640 uM GlcN6P; higher = faster cleavage; RNA array
How it was run: (§1)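 Weighted Michaelis–Menten fits across concentrations supplied kcat and KM, based on kobs from one- or two-exponential decay fits to normalised per-tile medians. The data came from barcoded ribozyme variants transcribed in situ by E. coli RNA polymerase on sequenced MiSeq chips and tracked at 37 °C by a hybridised Cy3 probe. Glucosamine-6-phosphate (40 μM to 10 mM) in HEPES/KCl/Mg(OAc)2 buffer was flowed in.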

glucosamine-6-phosphate [2] = variants of: B1; assay: self-cleavage kobs at 2500 uM GlcN6P; higher = faster cleavage; RNA array
How it was run: as §1

glucosamine-6-phosphate [3] = variants of: B1; assay: self-cleavage kobs at 10000 uM GlcN6P; higher = faster cleavage; RNA array
How it was run: as §1

| Variant | self-cleavage kobs at 640 uM GlcN6P (glucosamine-6-phosphate [1]) | self-cleavage kobs at 2500 uM GlcN6P (glucosamine-6-phosphate [2]) | self-cleavage kobs at 10000 uM GlcN6P (glucosamine-6-phosphate [3]) |
| --- | --- | --- | --- |
| U55G C67A C68G | 8.64e-05 ± 2.7e-05 s⁻¹ | 7.14e-05 ± 1.6e-05 s⁻¹ |  |
| A42G U55C G66U | 0.000398 ± 7.7e-05 s⁻¹ | 0.000634 ± 0.00014 s⁻¹ | 0.00167 ± 0.00029 s⁻¹ |
| A36C G40U U54A G63U | < 1e-05 s⁻¹ | < 1e-05 s⁻¹ | < 1e-05 s⁻¹ |
| G7A G40U C58U | < 1e-05 s⁻¹ | < 1e-05 s⁻¹ |  |
| G32C G35A A64C C70A | < 1e-05 s⁻¹ | < 1e-05 s⁻¹ |  |
| A15G U45C U57C | < 1e-05 s⁻¹ |  |  |
| U27G A28U U30G C68A | < 1e-05 s⁻¹ | < 1e-05 s⁻¹ |  |
| G40A A42U A48U | < 1e-05 s⁻¹ |  |  |
| C34G G44U C50U C71U | < 1e-05 s⁻¹ | < 1e-05 s⁻¹ |  |
| C16G U45C U54A C70U | 6.18e-05 ± 2.7e-05 s⁻¹ |  |  |
| G35C G40A U46G G66A | < 1e-05 s⁻¹ | < 1e-05 s⁻¹ |  |
| G9U U45G A52G | < 1e-05 s⁻¹ |  |  |
| C34U G44A A48U U56A G60A | < 1e-05 s⁻¹ |  |  |
| U46A C68G C71G | 0.00075 ± 0.00031 s⁻¹ |  |  |
| G32A G43A U57G | < 1e-05 s⁻¹ |  |  |
| A33C G59A C67U | < 1e-05 s⁻¹ |  |  |

| Variant | self-cleavage kobs at 640 uM GlcN6P (glucosamine-6-phosphate [1]) | self-cleavage kobs at 2500 uM GlcN6P (glucosamine-6-phosphate [2]) | self-cleavage kobs at 10000 uM GlcN6P (glucosamine-6-phosphate [3]) |
| --- | --- | --- | --- |
| C34U U69G C71U | 0.000948 ± 0.00043 s⁻¹ | 6.74e-05 ± 3.3e-05 s⁻¹ |  |
| G9U U47A | < 1e-05 s⁻¹ | < 1e-05 s⁻¹ |  |
| G41C G63C A64U | < 1e-05 s⁻¹ | < 1e-05 s⁻¹ |  |
| C8A G9A A15G A48C U57A G60A | < 1e-05 s⁻¹ |  |  |
| G51U U55C | < 1e-05 s⁻¹ |  | < 1e-05 s⁻¹ |
| G38A G40U U65C | < 1e-05 s⁻¹ |  |  |
| A52C C58G | < 1e-05 s⁻¹ |  | < 1e-05 s⁻¹ |
| G13U U31C G62A | < 1e-05 s⁻¹ |  |  |
| A15U C58U U69A | 0.000113 ± 2.4e-05 s⁻¹ | 0.000115 ± 3.3e-05 s⁻¹ |  |
| G44A U46C C68A | < 1e-05 s⁻¹ | < 1e-05 s⁻¹ |  |
| U30C G38U A42U | < 1e-05 s⁻¹ |  | < 1e-05 s⁻¹ |
| C67A U69A | 0.000234 ± 4.1e-05 s⁻¹ | 0.000247 ± 5.8e-05 s⁻¹ |  |
| A6U U31A G35U A42U G62U | < 1e-05 s⁻¹ | < 1e-05 s⁻¹ |  |
| G7U G32C G38C A42U C50U | < 1e-05 s⁻¹ |  |  |
| G7U G9C G29C A39G U46A A52U U55C C67G C70U | < 1e-05 s⁻¹ | < 1e-05 s⁻¹ |  |
